target: DosR (DevR) (Mycobacterium tuberculosis H37Rv) (UniProt P9WMF9); test: EMSA
Sequence (P9WMF9 whole entry): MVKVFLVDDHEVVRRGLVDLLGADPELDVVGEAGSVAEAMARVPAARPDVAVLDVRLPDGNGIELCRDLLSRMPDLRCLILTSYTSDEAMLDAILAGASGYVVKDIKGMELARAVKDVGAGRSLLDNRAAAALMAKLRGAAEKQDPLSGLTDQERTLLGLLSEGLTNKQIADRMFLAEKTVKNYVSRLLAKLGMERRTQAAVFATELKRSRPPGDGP

**Q.** Which binding does the source give for “TAAGTGGACACGAACCGTAAGTTTAGACTTACGGATATTCTTCCGCAAGGGTGCGCGGGTGGTGTGACACGTGATCCGGGCATCCCGTCACCCATGGCGTTGGAGCCGAGTATCGGTTGGCGACGTTGGCCCGCCGGAAAGTCGACTGGTACAAGCATTTTCCGAGAACCCATGCGGCGCGTCGCGGCGATGACCGGCAGAGAGGCTCCCTAGTATTGCGGCGTGCTGGATCGCTATGGAACCGA (double strand) [rv1955 promoter]” here?
**A.** The binding was “binds”.

**Q.** For “TGGTATCTGACACTGCTACGTTCCTTTCCGCTTGTTGGTCCACGTCCTTGCACGAGCCAACCGGACCATGGTCCGATTTATTCCGATCGCGTTACAGTGCAAAGGTGAGCGGCGCCGAGC (double strand) [rv3054 promoter]”, which binding is on record?
**A.** Its binding is “binds”.

**Q.** How did the binding turn out when “AGCGGGATCGCATCACGCATTGGGTACCTCCGATGCTGGCGGATAAAGCCTTTCGTGCCGGCGGATGATCCGAGGTCGCTAGCTGGCGAGGGCCATGGGCGAGCA (double strand) [rv2625 promoter]” was run?
**A.** The binding was “no binding”.

**Q.** How did the binding turn out when “AGCGGTTCGGACTCCACCGCGTCTCCTGAGAGCTTCAGCGTTACATCGGTTGACGAGTTGAAGAATTTATCAGATAGTGCGGATGCGTGCGGGCCGCCCGCGGCCAATCGGCTACGGCGTACGCGAGTCAGC (double strand) [rv0081 promoter]” was run?
**A.** The binding was “no binding”.
